Experimental data: the nanobody polyreactivity screen of Harvey et al. (2022)

Experiment: yeast display, Sf9 membrane polyspecificity reagent, FACS + sequencing; frameworks hold sequencing errors
Procedure, shortened: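 Nanobodies came from a synthetic yeast display library in Saccharomyces cerevisiae BJ5465, induced with galactose for 36–48 hours and stained for 1 hour at 4 °C with 10% biotinylated, detergent-solubilized Sf9 membrane reagent. Cells were enriched on streptavidin microbeads and then FACS-sorted, with low and high (top ~1%) gates set on anti-HA fluorescence for expression and streptavidin fluorescence for reagent binding. Each polyreactivity label reflects the gate a clone came from. Genes were amplified by colony PCR, sequenced by MiSeq 2 × 250 and filtered by CDR length.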

| Sequence | polyreactivity (PSR sort gate) |
| --- | --- |
| QVQLVESGGGLVQAGGSLRLSCAASGLTFYHYDMGWYRQAPGIETELVAAITNGGSTYYADSVKGRFTISRDNAKNTVYLQMNSLKPEDTAVYYCAADGSGYYDWYYYWGQVTQVTVSS | low polyreactivity |
| QVQLVESGGGLVQAGGSLRLSCAASGLTFYKNAMGWYRQAPGKEKELVAAISDSGGSTYYADSVKGRFTISRDNAKNTVYLQMNSLKPEDTAVCYCNARRRVYYKGFDYWGQGTQVTVSS | high polyreactivity |
| QVQLVESGGGLVQAGGSLRLSCAASGLTFYLYAMGWYRQAPGKERELVAAITSGGSTYYADSVKGRFTISRDNAKNTVYLQMNSLKPEDTAVYYCNKLTYGRVWDHHYDYWGQVTQVTVSS | low polyreactivity |
| QVQLVESGGGLVQAGGSLRLSCAASGLTFYPYAMGWYRQAPGKERELVAAINWSGTTTYYADSVKGRFTISRDNAKNTVYLQMNSLKPEDTAVYYCAAHYTTFIPSPDGDYLGQGTQVTVSS | low polyreactivity |
| QVQLVESGGGLVQAGGSLRLSCAASGLTFYRNAMGWYRQAPGKEREFVAAITSTDGSTYYADSVKGRFTISRDNAKNTVYLQMNSLKPEDTAVYYCAARRRRWSGYWGQGTQVTVSS | high polyreactivity |
| QVQLVESGGGLVQAGGSLRLSCAASGLTFYRYAMGWYRQAPGKERELVAAITSGTRTYYADSVKGRFTISRDNAKNTVYLQMNSLKPEDTAVYYCAFRQGWYHFRYDYWGQGTQVTVSS | high polyreactivity |
| QVQLVESGGGLVQAGGSLRLSCAASGLTFYSNAMGWYRQAPGKERELVARISTGGSTYADSVKGRFTISRDNAKNTVYLQMNSLKPVDTAVYYCAVDGWDDTYFRQDMDYWGQGTQVTVSS | low polyreactivity |
| QVQLVESGGGLVQAGGSLRLSCAASGLTFYTNAMGSYRQAPGKERELLAAITSSGGRTYYADSVKGRFTISRDNAKYTVYLQMNSLKPEDTAVYYCAADARRPRIPEMYYWGLGTQVTVSS | high polyreactivity |
| QVQLVESGGGLVQAGGSLRLSCAASGLTFYYNAMGWYRQAPGKERELVAAISFSGGRTYYADSVKGRFTISRDNAKNTVYLQMNSLKPEDTAVYYCAADWVRNWYTSGSWGQGTQVTVSS | high polyreactivity |
| QVQLVESGGGLVQAGGSLRLSCAASGLTFYYNAMGWYRQAPGKERELVAAISRYGGSTYYADSVKGRFRISRDNAKNTDYLQMNSLKPEDTAVYYCAVAYVYTRKGRVQPVKYDYWGQGTQVTVSS | high polyreactivity |
| QVQLVESGGGLVQAGGSLRLSCAASGLTFYYNAMGWYRQAPGKERELVAAITWSTDSTYYADSVKGRFTISRDNAKNTVYLQMNSLKPEDTAVYYCAAAVDAFTNKQYYYWGQGTQVTVSS | low polyreactivity |
| QVQLVESGGGLVQAGGSLRLSCAASGLTFYYYAMGWYRQAPGKERELVAGISGSDGSTYYADSVKGRFTISRDNAKNTVYLQMNSLKPEDTAVYYCAAEYYYPWPLYYITDGIYDMYYWGQGTQVTVSS | low polyreactivity |
| QVQLVESGGGLVQAGGSLRLSCAASGLTFYYYAMGWYRQAPGKERELVATISGSGGNTYYADSVKGRFTISRDNAKNTVFLQMNSLKPEDTAVYYCNARYRWWLYYSRDRVYYWGQGTQVTVSS | high polyreactivity |
| QVQLVESGGGLVQAGGSLRLSCAASGLTFYYYVMGWYRQAPGKERELVAAISKSGGRTYYADSVKGRFTISRDNAKNTVYLQMNSLKPEDSAVYYCAAMYTPNYTAYDSWGQGTQVTVSS | high polyreactivity |
| QVQLVESGGGLVQAGGSLRLSCAASGLTFYYYVMGWYRQAPGKERELVAAISKSGGRTYYADSVKGRFTISRDNAKNTVYLQMNSLKPEDTAVYYCAALYTPNYTAYDSWGQGTQVTVSS | high polyreactivity |
| QVQLVESGGGLVQAGGSLRLSCAASGLTIFVYAMGWSRQAPGKERELVAAISDSGGSTYYADSVKGRFTISRDNAKNTVYLQMNSLKPEDTAVYYCAADYRGIYSGIWGDYWGQGTQVTVSS | low polyreactivity |
| QVQLVESGGGLVQAGGSLRLSCAASGLTIGYYAMGWYRQAPGKERELVAAISGSGGATYYADSVKGRFTISRDNAKNTVYLQMNSLKPEDTAVYYCAAKWGRTGRFDYWGQGTQVTVSS | low polyreactivity |
| QVQLVESGGGLVQAGGSLRLSCAASGLTIQRNDMGWYRQAPGKEREFVATITSNAGSTYYADSVKGRFTISRDNAKNTVYLQMNSLKPEDTAVYYCARERWWGGSDYWGQGTQVTVSS | high polyreactivity |
| QVQLVESGGGLVQAGGSLRLSCAASGLTIRSYGMGWYRQAPGKERELVASITWSGGSTYYADSVKGRFTISRDNAKNTVYLQMNSLKPEDTAVYYCAASFDFQGYHYGYWGQGTQVTVSS | high polyreactivity |
| QVQLVESGGGLVQAGGSLRLSCAASGLTISYYAMGWYRQAPGKERELVAAISTDSSTNYADSVKGRFTISRDNAKNTVYLQMISLKPEDTAVYYCAAVVVYGPIHGYWGQGTQVTVSS | low polyreactivity |
| QVQLVESGGGLVQAGGSLRLSCAASGLTIWRYAMGWYRQAPGKEREFVATISQYGGRTYYAASVKGRFTITRDNAKKTVNLQMNSLKPEDTAVYYCAADDWRWGYDYWGPGTQVTVSS | high polyreactivity |
| QVQLVESGGGLVQAGGSLRLSCAASGLTLAPNAMGWYRQSPGKERELVAAITRSGGDTYYADSVKGRFTISRDTAKNTVYLQMNSLKPEDTAVYYCAADYWFRYGTYTGLTSYYYWGQGTQVTVSS | high polyreactivity |

| Sequence | polyreactivity (PSR sort gate) |
| --- | --- |
| QVQLVESGGGLVQAGGSLRLSCAASGLTLAYAMGWYRQPPGKEREFVAAISSSGGSTYYADSVKGRFTISRDNAKNTVYLQMNSLKPEDTAVYYCAARTNPGRYYYRFSGGSWGQGTQVTVSS | high polyreactivity |
| QVQLVESGGGLVQAGGSLRLSCAASGLTLDYYARGWYRQAPGKDRELVAVIRGRSGSTYYADSVKGRFTISRDNAKNTVYLQMNSLKPEDTAVYYCARVTTYGDYYWGQGTQVTVSS | high polyreactivity |
| QVQLVESGGGLVQAGGSLRLSCAASGLTLGSYAMGWYRLAPGKERELVAAISRRSGRTYYADSVKGRFTISRDNAKNTVYVQMNSLKPEDTAVYYCNRGYTAQVYTEFDYWGHGTQVTVSS | low polyreactivity |
| QVQLVESGGGLVQAGGSLRLSCAASGLTLKRYAMGWYRQAPGKERELDAAISKSGGSTYYADSVKGRFTSSRDNAKNTVYLQMNSLKPEDTPVYYCAADSYNLWDDYWGQGTQVTVSS | low polyreactivity |
| QVQLVESGGGLVQAGGSLRLSCAASGLTLPWYAMGWYRQAPGKERELVAAITWDGTRTYYADSVKGRFTISRDNAKNTVYLQMNSLKPEDTAVFYCNARRVRGTFYRSGVVGYSYWGHGTQVTVSS | high polyreactivity |
| QVQLVESGGGLVQAGGSLRLSCAASGLTLQPYAMGWYRQAPGKERELVAAITSGGSTYYADSVKGRFTISRDNAKNTVYLQMNSLKPEDTAVYYCAAVGRHYYVKFDYWGQGTQVTVSS | low polyreactivity |
| QVQLVESGGGLVQAGGSLRLSCAASGLTLRYYVMGWYRQAPGKERELVASITRSGGSTSYADSVKGRFTISRDNAKNTVYLQMNSLQPEDTAVYYCNRRTYVGTRASFLYYYWGQGTQVTVSA | high polyreactivity |
| QVQLVESGGGLVQAGGSLRLSCAASGLTLTSNAMGWYRQAPGKERELVAAINGSGGITYYADSVKGRFTISRDNAKNTVYLQMNSLKPEDTAVYYCNTVHYNLDYEYDYWGQGTQVTVSS | low polyreactivity |
| QVQLVESGGGLVQAGGSLRLSCAASGLTLYINAMGWYRQAPGKERELVAAIRTVGRTRYADSVKGRFTISRDNAKNTVYLQMNSLKPEDTAVYYCNARRYLRGYGYGYWGQGTQVTVSS | high polyreactivity |
| QVQLVESGGGLVQAGGSLRLSCAASGLTLYKNGMGWYRQAPGKERELVARITSGGRTYYADSVKGRFTISRDNAKNTVYLQMNSLKPEDTAVYYCNAVKSYASLCAGFYYWGQGTQVTVSS | high polyreactivity |
| QVQLVESGGGLVQAGGSLRLSCAASGLTLYRYAMGWYRQPPGKEREMVAGISWGGGSTYYADSVKGRFTISRDNAKNTVYLQMNSLKPEDTAVYYCAAGRLLYIPRYYYWGQGTQVTVSS | high polyreactivity |
| QVQLVESGGGLVQAGGSLRLSCAASGLTLYTYAMGWYREAPGKESELVAAISKNGGRTYYADSVKGRFTISRDNAKNTVYLQMNSLKPEDTAVYYCAARARVGTVTFDFWGQGTQVTVSS | high polyreactivity |
| QVQLVESGGGLVQAGGSLRLSCAASGLTSIHYMGWSRQAPGKERELVATITSSTGSTYYADSVKGRFTISRDNAKNTVYLQMNSLKPEDTAVYYCAAESFGADGPYQPSYDYWGQGTQVTVSS | low polyreactivity |
| QVQLVESGGGLVQAGGSLRLSCAASGLTSLGNAMGWYRQAPGKERELVAAITRTGTSTYYADSVKGRFTISRDNAKNTVYLQMNSLKPEDTAVYYCAALDRYSTEYKYQLYKQEYDYWGQGTQVTVSS | low polyreactivity |
| QVQLVESGGGLVQAGGSLRLSCAASGLTVDTYDMGWYIQAPGKERELVAAIDWSGVSTYYADSVKGRFTISRDNAKNTVYLQKNSLKTEDTAVYYCAADLLQYDIASWDYTYDYWGQGTQVTVSS | low polyreactivity |
| QVQLVESGGGLVQAGGSLRLSCAASGLTYAKYVMRWYRQAPGNERELVAAISRSGGSTFYADSVKGRFTISRDNAKNTVYLQMNSLKPEDTAVYYCAAAAWDPKGSRYDYWGQGTQVTVSS | low polyreactivity |
| QVQLVESGGGLVQAGGSLRLSCAASGLTYSNAMGWYRQAPGKERELVAAISWRGGRTYYADSVKGRFTISRDNAKNTVYLQMNSLKPEDTAVYYCAKYAHGHKWYGYWGQGTQVTVSS | low polyreactivity |
| QVQLVESGGGLVQAGGSLRLSCAASGLTYYYYAKGWYRQAPGKERDFVAAISRSGGTTYYADSVKGRFTISRDNAKNTDYLQMNSLKPEDTAVYYCNAQWWRYRPSQVIFDYWGQGTQVNVSS | high polyreactivity |
| QVQLVESGGGLVQAGGSLRLSCAASGMGWYRQAPGKERELVAAITSTDGSTYYADSVKGRFTISRDNAKNTVYLQMNSLTPEDTAVYYCAVEPYLWPVFSDDDYWGQGTQVTVSS | low polyreactivity |
| QVQLVESGGGLVQAGGSLRLSCAASGNIFARYAMGWYRQAPGKERELVAAISRSGGSTYYADSVKGRFTISRDNAKNTVYLQMNSLKPEDTAVYYCNAKSYGVLYWFAYDYWGQGTQVTVSS | high polyreactivity |
| QVQLVESGGGLVQAGGSLRLSCAASGNIFAVNAMGWSRQAPGKERELVARIRYSTGRTYYADSVKGRFTISRDNAKNTVYLQMNSLKPEDTAVYYCATDYYTTRVPGGYDYWGHGTQVTVSS | high polyreactivity |
